Experimental data as given in US20090176205, “Mutant proteins in the dna-binding domain of a telomeric protein, trf2, and telomeric dna mutants, and use of the complex structure of the trf2 dna-binding domain and telomeric dna” (published 2009).

B1: tr13 (dsDNA)
DNA 1: GTTAGGGTTAGGG
DNA 2: CCCTAACCCTAAC
B2: T3G (dsDNA)
DNA 1: GTGAGGGTTAGGG
DNA 2: CCCTAACCCTCAC
B3: T9G (dsDNA)
DNA 1: GTTAGGGTGAGGG
DNA 2: CCCTCACCCTAAC
B4: G7C (dsDNA)
DNA 1: GTTAGGCTTAGGG
DNA 2: CCCTAAGCCTAAC

Tests used:
hTRF2-DBD wild type [1] = biological target: T1, hTRF2-DBD wild type (Homo sapiens, UniProt Q15554 SEQ:1-63); assay: SPR; pH 6.8, 180 mM KCl, 293 K; 1:1 complex also shown by NMR titration and structure; conditions: tags: N-terminal Met added; untagged, E. coli BL21(DE3) pET23b; label: biotin (13mer on SA chip)
Protocol: (§1) The same experiments were performed on the six mutants of hTRF2 under the same conditions. […] Further, the six mutants were analyzed by SPR for the three DNAs T3G, G7C and T9G, as well as tr13. As a result, Kd values for T3G are about 7 times higher than those values for tr13; and Kd values for T9G are about 100 times higher than those values for tr13. […] Since C7′ is changed to G7′ in G7C, Asp489 which recognizes C7′ has become incapable of recognizing DNA. Thus, interaction with DNA is assumed to be non-specific. Although the affinity to T9G is about 10 times lower than the affinity to G7C, differences in Kd values of individual mutants for DNA show relatively similar tendencies to those observed in tr13 and T3G. It is believed that the binding mode between the major groove and recognition helix is not changed and that only the affinity to T9G is merely very low.
(§2) Affinity analysis was performed using a Biacore 3000 instrument. All experiments were performed at 293 K using a buffer containing 10 mM HEPES-KOH, 3 mM EDTA, 180 mM KCl and 0.003% Triton X-100 (v/v) (pH 6.8). Flow cells of an SA streptavidin sensor chip were coated with the 13mer oligonucleotide biotinylated. The proteins were injected into flow cells over 3-5 min at a flow rate of 10 μL/min until the reaction of protein with DNA had been equilibrated. Bound proteins were removed by a 30-sec wash with 2M KCl.

hTRF2-DBD R496K = biological target: T2, hTRF2-DBD R496K (Homo sapiens, UniProt Q15554 SEQ:1-63); assay: SPR; pH 6.8, 180 mM KCl, 293 K; conditions: tags: N-terminal Met added; untagged, E. coli BL21(DE3) pET23b; label: biotin (13mer on SA chip)
T2 chain: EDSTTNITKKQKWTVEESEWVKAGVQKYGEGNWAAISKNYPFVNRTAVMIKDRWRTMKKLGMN
Protocol: as §1, §2

hTRF2-DBD A484S = biological target: T3, hTRF2-DBD A484S (Homo sapiens, UniProt Q15554 SEQ:1-63); assay: SPR; pH 6.8, 180 mM KCl, 293 K; conditions: tags: N-terminal Met added; untagged, E. coli BL21(DE3) pET23b; label: biotin (13mer on SA chip)
T3 chain: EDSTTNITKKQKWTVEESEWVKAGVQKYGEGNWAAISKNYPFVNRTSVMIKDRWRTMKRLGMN
Protocol: as §1, §2

hTRF2-DBD K447R = biological target: T4, hTRF2-DBD K447R (Homo sapiens, UniProt Q15554 SEQ:1-63); assay: SPR; pH 6.8, 180 mM KCl, 293 K; conditions: tags: N-terminal Met added; untagged, E. coli BL21(DE3) pET23b; label: biotin (13mer on SA chip)
T4 chain: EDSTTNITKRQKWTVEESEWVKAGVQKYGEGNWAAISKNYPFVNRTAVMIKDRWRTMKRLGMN
Protocol: as §1, §2

[2] = biological target: T5, hTRF2-DBD dm (A471S/A484S) (Homo sapiens, UniProt Q15554 SEQ:1-63); assay: SPR; pH 6.8, 180 mM KCl, 293 K; conditions: tags: N-terminal Met added; untagged, E. coli BL21(DE3) pET23b; label: biotin (13mer on SA chip)
T5 chain: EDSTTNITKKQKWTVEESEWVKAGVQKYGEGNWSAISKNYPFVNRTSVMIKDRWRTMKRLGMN
Protocol: as §1, §2

hTRF2-DBD A471S = biological target: T6, hTRF2-DBD A471S (Homo sapiens, UniProt Q15554 SEQ:1-63); assay: SPR; pH 6.8, 180 mM KCl, 293 K; conditions: tags: N-terminal Met added; untagged, E. coli BL21(DE3) pET23b; label: biotin (13mer on SA chip)
T6 chain: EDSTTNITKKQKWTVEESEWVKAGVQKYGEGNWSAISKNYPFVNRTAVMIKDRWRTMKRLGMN
Protocol: as §1, §2

[3] = biological target: T7, hTRF2-DBD qm (K447R/A471S/A484S/R496K) (Homo sapiens, UniProt Q15554 SEQ:1-63); assay: SPR; pH 6.8, 180 mM KCl, 293 K; conditions: tags: N-terminal Met added; untagged, E. coli BL21(DE3) pET23b; label: biotin (13mer on SA chip)
T7 chain: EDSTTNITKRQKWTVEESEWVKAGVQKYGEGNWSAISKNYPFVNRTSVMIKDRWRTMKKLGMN
Protocol: as §1, §2

[4] = biological target: T8, hTRF1 (DNA-binding domain) (Homo sapiens, UniProt P54274 P54274:371-439); assay: SPR; 10 mM HEPES-KOH pH 6.8, 3 mM EDTA, 180 mM KCl, 0.003% Triton X-100, 293 K; conditions: label: biotin (13mer on SA chip)
T8 sequence (P54274 371-439, one chain of several): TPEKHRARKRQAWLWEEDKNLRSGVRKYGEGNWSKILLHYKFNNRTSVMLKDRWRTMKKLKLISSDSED
Protocol: The same experiments were performed on hTRF1 under the same conditions.
as §2, with “KCl. An equilibrium dissociate constant (Kd) was calculated from a Scatchard analysis of the RU values in the equilibrium region of the sensorgram at each analyte concentration. The affinity data were analyzed using BIAevaluation ver. 3.2 software.” for “KCl.”

[5] = biological target: T8, hTRF1 (DNA-binding domain); assay: SPR; pH 6.8, 180 mM KCl, 293 K; conditions: label: biotin (13mer on SA chip)
Protocol: as §1, §2

hTRF2-DBD wild type [6] = biological target: T1, hTRF2-DBD wild type; assay: SPR; pH 6.8, 180 mM KCl, 293 K; conditions: tags: N-terminal Met added; untagged, E. coli BL21(DE3) pET23b; label: biotin (13mer on SA chip)
Protocol: as §1, §2

Binder | Kd (hTRF2-DBD wild type [1]) [µM] | Kd (hTRF2-DBD R496K) [µM] | Kd (hTRF2-DBD A484S) [µM] | Kd (hTRF2-DBD K447R) [µM] | Kd [2] [µM] | Kd (hTRF2-DBD A471S) [µM] | Kd [3] [µM] | Kd [4] [µM] | Kd [5] [µM] | Kd (hTRF2-DBD wild type [6]) [µM]
B1 | 0.748 | 0.764 | 0.55 | 0.297 | 0.385 | 0.482 | 0.196 | 0.186 |  | 
B2 |  | 4.92 | 4.03 | 2.19 | 2.58 | 3.07 |  |  | 0.795 | 5.94
B3 |  | 114 | 69.1 | 37 | 47.9 | 44.2 | 26.5 |  | 3.14 | 110
B4 |  | 87 | 50.7 | 24.5 | 33.8 | 32.3 |  |  | 12.2 | 
